Source: patent publication US20200157153

Biological target: His-EutM-SpyCatcher (N-His-GS-EutM-GS-SpyCatcher)

B1: SpyTag-AmDH (N-His-thrombin-SpyTag-GS-Ch1-AmDH) (protein)
chain: MGSSHHHHHHSSGLVPRGSHMMGSSGAHIVMVDAYKPTKGSGGSGVDMSLVEKTSIIKDFTLFEKMSEHEQVVFCNDPATGLRAIIAIHDTTLGPALGGCRMQPYNSVEEALEDALRLSKGMTYSCAASDVDFGGGKAVIIGDPQKDKSPELFRAFGQFVDSLGGRFYTGTDMGTNMEDFIHAMKETNCIVGVPEAYGSSGNPSPATAYGVYRGMKAAAKEAFGSDSLEGKVVAVQGVGNVAYHLCRHLHEEGAKLIVTDINKEAVARAVEEFGAKAVDPNDIYGVECDIFAPCALGGIINDQTIPQLKAKVIAGSALNQLKEPRHGDMIHEMGIVYAPDYVINAGGCINVADELYGYNRERAMKKIEQIYDNIEKVFAIAKRDNIPTYVAADRMAEERIETMRKARSQFLQNGHHILSRRRAR
relative activity after 48 hours, 1:6 SpyTag-AmDH:EutM-SpyCatcher: approximately 79% relative activity
